# Data as given in patent US7304127.
# Where “and” joins values, the source holds several entries; their conditions need not be identical. Equal values may be shown once.
# Target: HIV-1LAI envelope gp120 labeled with radioactive iodine (HIV-1 LAI) (UniProt P03377)
# Test: 125I-gp120, peptide array
row,Molecule,counts minus background (counts per 20 min)
1,STRL33 61-78 (peptide),412 and 348
2,STRL33 41-58 (peptide),570 and 284
3,STRL33 33-50 (peptide),606 and 372
4,CCR5 165-182 (peptide),98
5,STRL33 297-314 (peptide),144 and 82.5
6,STRL33 29-46 (peptide),534 and 634
7,CCR5 237-254 (peptide),121
8,STRL33 113-130 (peptide),744 and 908
9,CCR5 241-258 (peptide),214
10,CCR5 325-342 (peptide),100
11,STRL33 105-122 (peptide),500 and 408
12,STRL33 309-326 (peptide),112 and 122
13,CCR5 201-218 (peptide),180
14,STRL33 133-150 (peptide),702 and 568
15,STRL33 109-126 (peptide),352 and 510
16,CCR5 221-238 (peptide),102
17,CCR5 161-178 (peptide),118
18,CCR5 105-122 (peptide),80

# Target: HIV-1LAI envelope gp120 labeled with radioactive iodine (HIV-1 LAI), P03377
# Test: 125I-gp120, peptide array
row,Molecule,counts minus background (counts per 20 min)
1,NRLDQAMQVTETLGMTHC (modifications not checked) [CCR5 273-290],10
2,QEAPERASSVYTRSTGEQ (modifications not checked) [CCR5 329-346],84
3,QKHIAKRFCKCCSIFQQE (modifications not checked) [CCR5 313-330],23
4,SDNYTEEMGSGDYDSMKE (modifications not checked) [CXCR4 9-26],43
5,MEGISIYTSDNYTEEMGS (modifications not checked) [CXCR4 1-18],2590
6,IVGNGLVILVMGYQKKLR (modifications not checked) [CXCR4 53-70],238
7,LVFFQKHIAKRFCKCCSI (modifications not checked) [CCR5 309-326],76
8,FREENANFNKIFLPTIYS (modifications not checked) [CXCR4 29-46],51
9,NANFNKIFLPTIYSIIFL (modifications not checked) [CXCR4 33-50],173
10,ERASSVYTRSTGEQEISV (modifications not checked) [CCR5 333-350],84
11,HCCINPIIYAFVGEKFRN (modifications not checked) [CCR5 289-306],200
12,LPTIYSIIFLTGIVGNGL (modifications not checked) [CXCR4 41-58],118
13,RNYLLVFFQKHIAKRFCK (modifications not checked) [CCR5 305-322],65
14,YSIIFLTGIVGNGLVILV (modifications not checked) [CXCR4 45-62],123
15,NPIIYAFVGEKFRNYLLV (modifications not checked) [CCR5 293-310],162
16,CKCCSIFQQEAPERASSV (modifications not checked) [CCR5 321-338],53
17,NKIFLPTIYSIIFLTGIV (modifications not checked) [CXCR4 37-54],138
18,KEPCFREENANFNKIFLP (modifications not checked) [CXCR4 25-42],252
19,QAMQVTETLGMTHCCINP (modifications not checked) [CCR5 277-294],81

row,Molecule,counts minus background (counts per 20 min)
1,LNTFQEFFGLNNCSSSNR (modifications not checked) [CCR5 257-274],293
2,TEEMGSGDYDSMKEPCFR (modifications not checked) [CXCR4 13-30],41
3,GLNNCSSSNRLDQAMQVT (modifications not checked) [CCR5 265-282],-31
4,SIYTSDNYTEEMGSGDYD (modifications not checked) [CXCR4 5-22],71
5,AARLLPPLYSLVFIFGFV (modifications not checked) [CCR5 29-46],33
6,GSGDYDSMKEPCFREENA (modifications not checked) [CXCR4 17-34],-28
7,SVYTRSTGEQEISVGL (modifications not checked) [CCR5 337-352],47
8,AKRFCKCCSIFQQEAPER (modifications not checked) [CCR5 317-334],64
9,VKQIAARLLPPLYSLVFI (modifications not checked) [CCR5 25-42],18
10,LGMTHCCINPIIYAFVGE (modifications not checked) [CCR5 285-302],282
11,IVLLLNTFQEFFGLNNCS (modifications not checked) [CCR5 253-270],2130
12,QEFFGLNNCSSSNRLDQA (modifications not checked) [CCR5 261-278],63
13,CSSSNRLDQAMQVTETLG (modifications not checked) [CCR5 269-286],90
14,FLTGIVGNGLVILVMGYQ (modifications not checked) [CXCR4 49-66],246
15,LPPLYSLVFIFGFVGNML (modifications not checked) [CCR5 33-50],705
16,GEKFRNYLLVFFQKHIAK (modifications not checked) [CCR5 301-318],69
17,YDSMKEPCFREENANFNK (modifications not checked) [CXCR4 21-38],53
18,VTETLGMTHCCINPIIYA (modifications not checked) [CCR5 281-298],15
19,YAFVGEKFRNYLLVFFQK (modifications not checked) [CCR5 297-314],596
